Measured values: FireProtDB (doi:10.1016/j.bpc.2008.09.020)

Settings: Pseudomonas aeruginosa (strain ATCC 15692 / DSM 22644 / CIP 104116 / JCM 14847 / LMG 12228 / 1C / PRS 101 / PAO1), 25 °C, GdnHCl, CD, Sodium acetate 20 mM, whole UniProt chain shown

B1: Cytochrome c-551 wild type, P00099 (protein)
chain: MKPYALLSLLATGTLLAQGAWAEDPEVLFKNKGCVACHAIDTKMVGPAYKDVAAKFAGQAGAEAELAQRIKNGSQGVWGPIPMPPNAVSDDEAQTLAKWVLSQK
denaturant m value (pH 3.6): 2.88 kcal/mol/M
denaturant midpoint (higher = more stable) (pH 3.6): 1.44 M
unfolding free energy (pH 3.6): 4.14 kcal/mol
denaturant m value (pH 5): 2.64 kcal/mol/M
denaturant midpoint (higher = more stable) (pH 5): 2.06 M
unfolding free energy (pH 5): 5.44 kcal/mol
